In the data set the test system is Indicator molecule containing the cleavable sequence GPQGIFGQ with a terminal biotin group connected via a polyethylene glycol spacer/linker (intact, Examples 1-6).

This is an account of results in patent US20250157661.

Sequence of Active MMP-9 (Alere San Diego) (chain, as listed by the source): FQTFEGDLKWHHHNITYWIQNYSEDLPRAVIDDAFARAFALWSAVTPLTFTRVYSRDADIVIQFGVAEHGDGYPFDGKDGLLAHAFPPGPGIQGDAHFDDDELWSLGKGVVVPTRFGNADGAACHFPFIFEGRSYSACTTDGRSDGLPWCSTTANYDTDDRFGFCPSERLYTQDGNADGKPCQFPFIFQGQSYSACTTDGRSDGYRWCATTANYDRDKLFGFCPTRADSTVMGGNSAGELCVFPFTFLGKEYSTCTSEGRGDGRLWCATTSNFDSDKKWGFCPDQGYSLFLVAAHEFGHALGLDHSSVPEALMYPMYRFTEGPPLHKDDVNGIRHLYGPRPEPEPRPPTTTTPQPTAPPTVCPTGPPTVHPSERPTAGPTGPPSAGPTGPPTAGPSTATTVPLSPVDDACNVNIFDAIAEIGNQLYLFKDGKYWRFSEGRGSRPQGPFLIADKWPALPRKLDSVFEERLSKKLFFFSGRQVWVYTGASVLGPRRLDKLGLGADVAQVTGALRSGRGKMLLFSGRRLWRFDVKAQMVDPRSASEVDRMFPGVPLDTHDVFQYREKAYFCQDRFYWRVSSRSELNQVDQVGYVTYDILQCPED
Sequence of MMP9 (Enzo) (chain, as listed by the source): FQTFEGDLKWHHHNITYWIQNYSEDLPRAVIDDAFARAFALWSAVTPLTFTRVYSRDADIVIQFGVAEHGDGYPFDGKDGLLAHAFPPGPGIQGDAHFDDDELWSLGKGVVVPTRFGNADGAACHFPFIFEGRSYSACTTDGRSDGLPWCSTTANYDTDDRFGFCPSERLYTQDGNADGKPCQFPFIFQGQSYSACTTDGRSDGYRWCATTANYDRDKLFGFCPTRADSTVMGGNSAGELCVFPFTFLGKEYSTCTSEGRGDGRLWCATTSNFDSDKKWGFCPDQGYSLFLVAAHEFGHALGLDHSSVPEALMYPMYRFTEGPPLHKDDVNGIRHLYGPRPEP
Sequence of MMP8 (Enzo) (chain, as listed by the source): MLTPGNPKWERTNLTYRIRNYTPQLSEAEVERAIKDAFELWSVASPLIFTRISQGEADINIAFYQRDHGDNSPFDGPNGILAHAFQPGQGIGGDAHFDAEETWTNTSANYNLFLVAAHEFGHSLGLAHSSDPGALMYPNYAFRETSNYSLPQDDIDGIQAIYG
Sequence of MMP2 (Enzo) (chain, as listed by the source): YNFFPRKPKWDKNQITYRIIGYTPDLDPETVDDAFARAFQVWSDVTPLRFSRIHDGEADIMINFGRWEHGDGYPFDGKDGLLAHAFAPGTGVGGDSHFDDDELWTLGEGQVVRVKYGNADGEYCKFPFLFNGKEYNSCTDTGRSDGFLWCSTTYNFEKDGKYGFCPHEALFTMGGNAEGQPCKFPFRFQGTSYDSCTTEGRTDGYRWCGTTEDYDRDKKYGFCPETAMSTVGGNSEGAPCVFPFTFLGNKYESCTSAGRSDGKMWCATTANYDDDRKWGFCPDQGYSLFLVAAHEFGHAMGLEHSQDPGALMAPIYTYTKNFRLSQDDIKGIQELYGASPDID
Sequence of MMP10 (Enzo) (chain, as listed by the source): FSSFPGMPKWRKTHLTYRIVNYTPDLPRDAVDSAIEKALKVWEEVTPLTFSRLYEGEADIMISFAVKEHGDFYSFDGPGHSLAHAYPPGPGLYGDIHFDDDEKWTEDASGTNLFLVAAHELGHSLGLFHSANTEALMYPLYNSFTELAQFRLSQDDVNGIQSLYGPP
Sequence of MMP3 (Enzo) (chain, as listed by the source): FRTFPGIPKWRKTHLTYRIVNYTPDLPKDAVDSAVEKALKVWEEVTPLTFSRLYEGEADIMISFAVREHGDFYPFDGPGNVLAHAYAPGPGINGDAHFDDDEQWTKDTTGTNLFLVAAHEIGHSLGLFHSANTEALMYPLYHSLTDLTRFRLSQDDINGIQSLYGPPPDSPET

Take MMP8 (Enzo): the Reader value (lateral flow, CF1522-gold) with MMP at 0.5 ug/ml stood at 1140 reader units.
With Active MMP-9 (Alere San Diego), the OD405 (ELISA, streptavidin plate, CF1522-AP) at 0.39 ng/ml MMP9 is 0.14 OD405; the OD405 (ELISA, streptavidin plate, CF1522-AP) at 0.78 ng/ml MMP9 came out at 0.14 OD405; the OD405 (ELISA, streptavidin plate, CF1522-AP) at 1.56 ng/ml MMP9 was determined as 0.14 OD405; the OD405 (ELISA, streptavidin plate, CF1522-AP) at 3.13 ng/ml MMP9 worked out at 0.13 OD405. Moreover, the OD405 (ELISA, streptavidin plate, CF1522-AP) at 6.25 ng/ml MMP9 stood at 0.17 OD405; the OD405 (ELISA, streptavidin plate, CF1522-AP) at 12.50 ng/ml MMP9 came out at 0.18 OD405; the OD405 (ELISA, streptavidin plate, CF1522-AP) at 25.00 ng/ml MMP9 stood at 0.27 OD405; the OD405 (ELISA, streptavidin plate, CF1522-AP) at 50.00 ng/ml MMP9 came out at 0.5 OD405. This substance also came in with a reader value (lateral flow, CF1522-gold at the polystreptavidin test line) at 0.9765625 ng/ml MMP9 of 338 reader units; a reader value (lateral flow, CF1522-gold at the polystreptavidin test line) at 1.953125 ng/ml MMP9 of 343 reader units; a reader value (lateral flow, CF1522-gold at the polystreptavidin test line) at 3.90625 ng/ml MMP9 of 413 reader units; a reader value (lateral flow, CF1522-gold at the polystreptavidin test line) at 7.8125 ng/ml MMP9 of 524 reader units. The same substance displayed a reader value (lateral flow, CF1522-gold at the polystreptavidin test line) at 15.625 ng/ml MMP9 of 882 reader units; a reader value (lateral flow, CF1522-gold at the polystreptavidin test line) at 31.25 ng/ml MMP9 of 2030 reader units; a reader value (lateral flow, CF1522-gold at the polystreptavidin test line) at 62.5 ng/ml MMP9 of 3830 reader units; a reader value (lateral flow, CF1522-gold at the polystreptavidin test line) at 125 ng/ml MMP9 of 5580 reader units. The reader value (lateral flow, CF1522-gold at the polystreptavidin test line) at 250 ng/ml MMP9 was 6220 reader units; the reader value (lateral flow, CF1522-gold at the polystreptavidin test line) at 500 ng/ml MMP9 is 6730 reader units; the reader value (lateral flow, CF1522-gold at the polystreptavidin test line) at 1000 ng/ml MMP9 was determined as 6770 reader units.
Turning to MMP3 (Enzo), the Reader value (lateral flow, CF1522-gold) with MMP at 0.5 ug/ml turned out to be 336 reader units.
Turning to MMP9 (Enzo), the Reader value (lateral flow, CF1522-gold) with MMP at 0.5 ug/ml is 3840 reader units.
In turn, MMP10 (Enzo) yielded a Reader value (lateral flow, CF1522-gold) with MMP at 0.5 ug/ml of 444 reader units.
On the same count and under the same terms, to MMP2 (Enzo) belongs 1610 reader units.
